Experimental data as given in the supplement of paper PMC9170038.

System: K4 kissing-loop RNA reporter
Assay: apparent KD of K4 kissing-loop reporter; higher = weaker reporter binding
Conditions: Eterna round: R107
Description: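 RNA-MaP round R107: designed RNA switches with theophylline, tryptophan, arginine or FMN aptamers are transcribed on-chip within common flanks. They are titrated with a labelled K4 kissing-loop RNA reporter in RNA-MaP buffer (100 mM Tris pH 7.5, 80 mM KCl, 4 mM MgCl2), without ligand or with the indicated ligand. Median apparent KD per design.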

[1] = input ligand: theophylline 20 uM
[2] = input ligand: tryptophan 2.4 mM
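Note: bound reporter read as fluorescence of individual clusters on recovered sequencing chips by microscopy, with normalized cluster intensities fitted with a binding model.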

Sequence	apparent KD of K4 kissing-loop reporter (input ligand: FMN 200 uM)	apparent KD of K4 kissing-loop reporter (input ligand: arginine 13.2 mM)	apparent KD of K4 kissing-loop reporter (input ligand: none)	apparent KD of K4 kissing-loop reporter [1]	apparent KD of K4 kissing-loop reporter [2]
AAAUUUAAUAUAUUUAAAUAAAUAUGUGAUACCAGACAUUUAUAAGUCCCUUGGCAGCACAAUGCAGUGAUGUUGCUUAUAAUAA [JR_SSTheophyA_Sub017]	85.6 nM	114 nM	88.8 nM	192 nM	73.5 nM
AGCCGAAAGGCGAGUGCUGUCACUCCGGAAGGAGCGCAGGAAACUGCAGGUAGGUCGCCGGAGUGAUGUUCCGGUGCAGCACUCA [Omei KL Arginine A Exc B v6]	614 nM	317 nM	1120 nM	561 nM	800 nM
GAUUGUGAUGGAAACAUCGCAAUCUCUGAAGGAGCGCGUGAAAACGCAGGUAGGUCGCAGAACGACAAAGACAGUGAUGUUGUCA [Ex Arginine A K4 5]	321 nM	263 nM	289 nM	298 nM	234 nM
CCAGUUUGAGUGAUGUUCAGGCAUUGGUACGAGGAUAUCGAGGAGUUGAGAAGGCGUACUACUCAACUAUGUAUGAAUACAUACC [FMN A Ex t2]	224 nM	89 nM	125 nM	126 nM	116 nM
GGAUAGGACAUAGGAUAUGGUAGUGAUGUUACCAAACUGGUUAAACAUGUCAGAAAACUGGCAUGACCAGAAGGAUGUCCUAUCG [FmnBX 27 U11+A75]	85.2 nM	63.2 nM	66.3 nM	58.8 nM	63.5 nM
AAAGUGUCAGCACGAGUGAUGUUCGUGGAUACCAGCCUCGAUAAAGGCCCUUGGCAGCCGAAAAGUCAAGGGCUGGCACAUAAAA [KL-XTheo-A11]	216 nM	205 nM	251 nM	341 nM	226 nM
UAACGGCAACAAGGAUAUCCCAGUGAUGUUGGGAGAUAUUGACUAAGGAGACAUGAUAGGCAUAAUGGAGAAGGUGUGUUGGGAG [theeternabot_exclusion_KL_FMN_B_19]	159 nM	116 nM	142 nM	131 nM	138 nM
GCGCAUGUUAAAGGAUAUAGCAGGUGAUACAAGAAAGUGAGUGAUGUUUAUGUAGAUGAUGAUAUGUUAGAAGGUUAACAAACGC [abcdefghijklmno]	922 nM	624 nM	809 nM	867 nM	564 nM
GCGGGCCAGACGGCCGCCACUCCGGGCAGUGAUGUUGCGAAUCUUCUACUAGAGUGAUGUUCUACGAGGACCGGGUCGGAACGCG [Exclusion Tryptophan B Gf 14]	458 nM	384 nM	569 nM	502 nM	289 nM
UGACACUCAACGGCCGCCACUACCGUCGCCGAAUUCCGCAGUGAUGUUGCGAUCCUCCGAUUGUCUAGGACCGGGUUGUUUGGGC [theeternabot_exclusion_KL_Trp_B_43]	181 nM	209 nM	223 nM	216 nM	162 nM
AAAUAUAGUGAUGUUAUAUAUAUAUGUGAUACCAGAGAAAGAAAACUCCCUUGGCAGCACGAGAGAGAAUUUUUUUUUUAUAUAU [AstrosSSTheA#1]	362 nM	398 nM	552 nM	414 nM	245 nM
GCCCGGGCGAGUGAUGUUCGCCCACGUGAUACCAGUGCCAUCCAACACCCUUGGCAGCACGCGGGCAGUGAUGUUGCCCUUGUAU [Exclusion Theophylline A GF 4]	115 nM	110 nM	122 nM	138 nM	111 nM
AGAGUUAUGAGAGGAUAUGCGGCUAGUACUCAAAGAGUACUAGCAGCGGAGUGAUGUUCUGCGAAAGCAGAAGGUUCAUAACUCA [#08 K4 FMN B Same State]	214 nM	622 nM	1710 nM	1110 nM	1050 nM
CGUGUAAUGUGGAGAUUUGAAAAGGCGCAUCGAGGACCGGUACGGCCGCCACUCGCUACGAGCUAGUGAUGUUGGCUCGUUCGGA [theeternabot_sameState_KL_Trp_A_23]	238 nM	209 nM	210 nM	252 nM	194 nM
GCAUCAUGCUACGAUACCAGAAGUUCCCUUUAGUGUAGUGAUGUUGCAGAUAUUGCUUACUUCCCUUGGCAGCGUUUGACGGGUA [theeternabot_sameState_KL_Theo_B_35]	256 nM	205 nM	220 nM	335 nM	155 nM
GCAAAGGCCCAUCGGAAUUCGAGACCAGCACGAGGACCGGUACGGCCGCCACUCGUGCAGUGAUGUUGCACGAAUGGGAAACCGC [Oninanso]	112 nM	103 nM	125 nM	118 nM	147 nM
GUUCUGAUGGAAACAUCGGAACAUACUGAUACCAGUAUCGAUAGAUACCCUUGGCAGCAGAAUCAGUAAUAACGAGUGAUGUUCG [Ex Theophylline A K4 2]	275 nM	247 nM	293 nM	273 nM	257 nM
CGAAUGGAACUAUUGAACAUUUGUAUUGGCAAGGAUAUCGGGCUAUCGAGAAGGUGCUAUUUGGGCAGUGAUGUUGCCGAUUUAA [theeternabot_sameState_KL_FMN_A_10]	43.3 nM	94.4 nM	54.1 nM	90.9 nM	50 nM
GGGAGUAGUGCGGCCGCCACUGUGAGGGAAGAAGAAUAUAGUGAUGUUAUAUAGGAAGGGAAGAAUAGGACCGGGCAUUAGAUUU [SSTRyptB.aB]	225 nM	208 nM	245 nM	230 nM	198 nM
UAGGAGUGAUGUUCCAUAUCUUGAGCCGAAGGAGCGCCUUUCUAGGCAGGUAGGUCGCGGCAGAAGGUACCAGUGAUGUUGGAAA [Same State Arginine A GF7]	163 nM	171 nM	208 nM	184 nM	145 nM
AAUAUCUAGUAUAUAUUUAAUAAAACAGAUACCAGUGAUAAUAGACACCCUUGGCAGCUGGACGAGUGAUGUUCGUAUAUAUUAA [JR_SSTheophyA_Sub007]	90.7 nM	153 nM	108 nM	184 nM	66.8 nM
UUGGCAGUGAUGUUGCCAGACAUCACCGAAGGAGCGGGCGAAAGCCCAGGUAGGUCGCGGUAGCGGAGUGAUUCUCCGCGAGGGC [Same State Arginine A GF 23]	957 nM	621 nM	937 nM	759 nM	829 nM

Sequence	apparent KD of K4 kissing-loop reporter (input ligand: FMN 200 uM)	apparent KD of K4 kissing-loop reporter (input ligand: arginine 13.2 mM)	apparent KD of K4 kissing-loop reporter (input ligand: none)	apparent KD of K4 kissing-loop reporter [1]	apparent KD of K4 kissing-loop reporter [2]
GAUAUAGUGAUGUUAUAUACUGAUAGACAACGAGGACCGGUACGGCCGCCACUCGAGAGGGUGAAAAUGGUGAUAAAAUAAUGAU [#03 K4 Tryptophan A Exclusion]	349 nM	271 nM	381 nM	322 nM	274 nM
AAAUAAAUCAGAGGAUAUUCUUCCCACGUCGAAGUACCGUGCUUGAUGGAGUGAUGUUCGAUCAGAGAAGAAGGCUGAUAAAUAA [Same State FMN B GF 19]	732 nM	395 nM	917 nM	621 nM	338 nM
GAUGUAGAGGCGGCCGCCACUAGUGAUGUUAGUGAUGUUUGAUACUGUAUAUAUCGGCGUGUAGAUAGGACCGGGCCUGAUGGAG [dbbdmullin]	276 nM	165 nM	214 nM	225 nM	201 nM
UGGAGUUGACGAAAAGUCAACUCCUGAGAUACCAGUGACGAAAGUCACCCUUGGCAGCUCACUGCCAGUGAUGUUGGAAAAUAAA [#OpenEnded 1]	527 nM	295 nM	238 nM	204 nM	387 nM
CGCCGGAAGGCGGUCGCUCCCACUCCGGAAGGAGCGCCCGGAAGGGCAGGUAGGUCGCCGGAGUGAUGUUCCGGUGGAGGGACCG [#2 Exclusion - Arginine A Attempt #10 (Inspired by Omei)]	230 nM	117 nM	113 nM	111 nM	109 nM
AGCUGUGGCAGAAGGAGCGGCAGUUAUUCUGAUAGUACUCUGAGUGAUGUUCAGAACGACUGUCAGGUAGGUCGCUGUCACAGCU [#02 K4 Arginine B Exclusion]	252 nM	252 nM	234 nM	206 nM	218 nM
UUUGGAGAGGGAAGGAGCGUGAAAGAGAAAGAAUAUAGUGAUGUUAUAUAGAAGAAAGAAUCACAGGUAGGUCGCCCGGAGGAGG [SSArgB.D]	707 nM	865 nM	661 nM	990 nM	575 nM
CUCUAGGCGCUCGCGUGAGUGAUGUUUACGCGAGGACCGGUACGGCCGCCACUCGCAGACUGGGUGUAAGCGGAGCUGUAUGCCC [theeternabot_exclusion_KL_Trp_A_12]	277 nM	158 nM	212 nM	174 nM	223 nM
AGCGGCCAGUCGGCCGCCACUCCAAGCAGUGAUGUUGCUAAGUUUCUACAAGAGUGAUGUUCUUAGAGGACCGGGACUGAUGUGA [Exclusion Tryptophan B Gf 7]	192 nM	240 nM	211 nM	241 nM	157 nM
GAUUCAGUGAUGUUGGAAGGCGAGCGGGAUACCAGCGGAGACUCACGCCCUUGGCAGCCCACAUAUCCCAGGUAGAUAAUAGAUC [Same State - Theophylline A (Freestyle 7)]	201 nM	123 nM	178 nM	160 nM	180 nM
AAUAAAAUCACGGCCGCCACUGAAUAAUUACAAAGUAGUGAUGUUACUUUACAUAUCUUAUUUAACAGGACCGGGUGAAUAUUUA [JR_ExcTryptoB_Sub007]	78.6 nM	70.2 nM	76.2 nM	69.7 nM	78.3 nM
GUGCAGUGAUGUUGCACGAGGAAAGACGAUACCAGCCGUAAAUAUGGCCCUUGGCAGCGUGGGCUAGCACAAAAUGUGCUAGUCU [Zareatza]	127 nM	109 nM	116 nM	107 nM	98.2 nM
UAAGAAUAAGUAGCAGUGAUGUUGCUACUGCGAGGACCGGUACGGCCGCCACUCGAGUCCUCGAAACAUCACUGAACGAGGAAUA [whbob_SS_Tryp_A_m11]	298 nM	190 nM	193 nM	319 nM	270 nM
UGUAUUUCGGCGGCCGCCACUGACCAUAGCCUUCGAUGGCCAGUGAUGUUGGCCUCUGGCUCUAACAGGACCGGGCCGAAUUGCG [Usvediin]	303 nM	165 nM	190 nM	168 nM	132 nM
AAGCCAGAGAUUGCUGCGGGUUCCAGAGAUACCAGCCGUAUUGAAGGCCCUUGGCAGCUCGAGUGAUGUUCGAGCCGUCUCUAGC [Bisore]	126 nM	101 nM	124 nM	123 nM	110 nM
CUUGGAAGGACGGCCGCCACUCGACAGUGAUGUUGUCCGAGUGGGUAGCGCAGUGAUGUUGUGUCGAGGACCGGGUCCUAGGAAU [Exclusion Tryptophan B GF 27]	185 nM	149 nM	170 nM	155 nM	137 nM
AGUGAUGUAUGGCGGUUUGUCACUUAUAAUCAGGAUAUAUAAACAAAUAGAAGGGAUGGCGGAGUGAUGUUCCGCCGGCCGCCAU [FMN A Exl V5]	170 nM	136 nM	167 nM	172 nM	149 nM
GCAUCCAUGGCAGGAUAUAGGUUCGUGGAGUGAUGUUCCAUAGCCCGAGUGAUGUUCGUUAUCCGCCUAGAAGGGCCGUGGAUGC [whbob_Ex_FMNB__2th214]	248 nM	184 nM	235 nM	192 nM	212 nM
GCCAGUGCGCGAAGGAGCGCCGUGACAGGUUACUGCCUUGGGCAGUGAUGUUGCUCAAUCUGGCAGGUAGGUCGCGUGCACUGGC	212 nM	184 nM	166 nM	204 nM	197 nM
UGAUCUCGGCAGUGAUGUUGCAUAUGAGAAGGAGCGCACGAAAGUGCAGGUAGGUCGCUCAGCCACGACGAAAGUCGCGAGAUCU [#SwitchBubble 3 #K4Early]	137 nM	259 nM	155 nM	238 nM	129 nM
GCCGUAGAUUGAAGGAGCGCCGCACAUGUCCCGCUUAGUGUAGUGAUGUUACAGUGUCAGCGGCAGGUAGGUCGCAAUCUACGGC	85.8 nM	183 nM	225 nM	123 nM	218 nM
